We go through eight molecules from US20180016327A1 (Chugai, published 2018).

The target in this experiment is T1, human C5 (human, UniProt P01031 19-673; P01031 678-1676, Beta and alpha chains are disulfide-linked and the protein is glycosylated.).
T1 construct: Either in-house recombinant C5 or plasma derived C5 (CALBIOCHEM) was used; also called recombinant human C5; plasma derived human C5
The experiment in a line: Biacore, captured antibody, pH 7.4, 37 C.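 Also: biacore binding response of anti-C5 antibody light chain variants captured on chip with human C5 injected, ACES running buffer containing 1.2 mM CaCl₂, parent light chain antibody set to 100.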 A general note: SPR reads the build-up and loss of mass on a sensor chip optically.

Description: The light chain variants were tested for the binding affinity to C5 at pH 7.4 and at 37 degrees C. using Biacore T200 instrument (GE Healthcare) or Biacore 4000 instrument (GE Healthcare). […] Anti-C5 antibodies were captured on an immobilized molecule, and then human C5 was injected. The running buffer used was pH 7.4 ACES Buffer containing 1.2 mM Ca (20 mM ACES, 150 mM NaCl, 1.2 mM CaCl₂, 0.05% Tween 20). A value, % binding, was determined by normalizing binding response with that of antibody comprising parent light chain as 100.

B1: CFP0015 15L 50D (antibody, V domains shown)
VH: QVQLLESGGGLVQPGGSLRLSCAASGFTFSSYAMSWVRQAPGKGLEWVSAISGSGGSTYYADSVKGRFTISRDNSKNTLYLQMNSLRAEDTAVYYCARGDQIWYDQWYYFDMWGQGTLVTVSS
VL: DIQMTQSPSSLSASVGDRVTITCRASQSIEDDLAWYQQKPGKAPKLLIYDASNLQSGVPSRFSGSGSGTDFTLTISSLQPEDFATYYCQQYDSSPLTFGQGTKVEIK
As for B1, the “% binding (parent = 100)” value was determined as 131%.

B2: CFP0015 15L 50Y (antibody, V domains shown)
VH: QVQLLESGGGLVQPGGSLRLSCAASGFTFSSYAMSWVRQAPGKGLEWVSAISGSGGSTYYADSVKGRFTISRDNSKNTLYLQMNSLRAEDTAVYYCARGDQIWYDQWYYFDMWGQGTLVTVSS
VL: DIQMTQSPSSLSASVGDRVTITCRASQSIEDDLAWYQQKPGKAPKLLIYYASNLQSGVPSRFSGSGSGTDFTLTISSLQPEDFATYYCQQYDSSPLTFGQGTKVEIK
On to B2, for which the “% binding (parent = 100)” value was determined as 46.9%.

B3: CFP0015 15L 53S (antibody, V domains shown)
VH: QVQLLESGGGLVQPGGSLRLSCAASGFTFSSYAMSWVRQAPGKGLEWVSAISGSGGSTYYADSVKGRFTISRDNSKNTLYLQMNSLRAEDTAVYYCARGDQIWYDQWYYFDMWGQGTLVTVSS
VL: DIQMTQSPSSLSASVGDRVTITCRASQSIEDDLAWYQQKPGKAPKLLIYEASSLQSGVPSRFSGSGSGTDFTLTISSLQPEDFATYYCQQYDSSPLTFGQGTKVEIK
For B3, the “% binding (parent = 100)” value turned out to be 73.6%.

B4: CFP0015 15L 50H (antibody, V domains shown)
VH: QVQLLESGGGLVQPGGSLRLSCAASGFTFSSYAMSWVRQAPGKGLEWVSAISGSGGSTYYADSVKGRFTISRDNSKNTLYLQMNSLRAEDTAVYYCARGDQIWYDQWYYFDMWGQGTLVTVSS
VL: DIQMTQSPSSLSASVGDRVTITCRASQSIEDDLAWYQQKPGKAPKLLIYHASNLQSGVPSRFSGSGSGTDFTLTISSLQPEDFATYYCQQYDSSPLTFGQGTKVEIK
On to B4, for which the “% binding (parent = 100)” value is 8.8%.

B5: CFP0015 15L 50Q (antibody, V domains shown)
VH: QVQLLESGGGLVQPGGSLRLSCAASGFTFSSYAMSWVRQAPGKGLEWVSAISGSGGSTYYADSVKGRFTISRDNSKNTLYLQMNSLRAEDTAVYYCARGDQIWYDQWYYFDMWGQGTLVTVSS
VL: DIQMTQSPSSLSASVGDRVTITCRASQSIEDDLAWYQQKPGKAPKLLIYQASNLQSGVPSRFSGSGSGTDFTLTISSLQPEDFATYYCQQYDSSPLTFGQGTKVEIK
Turning to B5, the “% binding (parent = 100)” value turned out to be 51.8%.

B6: CFP0015 15L 50S (antibody, V domains shown)
VH: QVQLLESGGGLVQPGGSLRLSCAASGFTFSSYAMSWVRQAPGKGLEWVSAISGSGGSTYYADSVKGRFTISRDNSKNTLYLQMNSLRAEDTAVYYCARGDQIWYDQWYYFDMWGQGTLVTVSS
VL: DIQMTQSPSSLSASVGDRVTITCRASQSIEDDLAWYQQKPGKAPKLLIYSASNLQSGVPSRFSGSGSGTDFTLTISSLQPEDFATYYCQQYDSSPLTFGQGTKVEIK
For B6, the “% binding (parent = 100)” value was determined as 44.2%.

B7: CFP0015 15L 53H (antibody, V domains shown)
VH: QVQLLESGGGLVQPGGSLRLSCAASGFTFSSYAMSWVRQAPGKGLEWVSAISGSGGSTYYADSVKGRFTISRDNSKNTLYLQMNSLRAEDTAVYYCARGDQIWYDQWYYFDMWGQGTLVTVSS
VL: DIQMTQSPSSLSASVGDRVTITCRASQSIEDDLAWYQQKPGKAPKLLIYEASHLQSGVPSRFSGSGSGTDFTLTISSLQPEDFATYYCQQYDSSPLTFGQGTKVEIK
For the molecule B7, the “% binding (parent = 100)” value is 80.8%.

B8: CFP0015 15L 50T (antibody, V domains shown)
VH: QVQLLESGGGLVQPGGSLRLSCAASGFTFSSYAMSWVRQAPGKGLEWVSAISGSGGSTYYADSVKGRFTISRDNSKNTLYLQMNSLRAEDTAVYYCARGDQIWYDQWYYFDMWGQGTLVTVSS
VL: DIQMTQSPSSLSASVGDRVTITCRASQSIEDDLAWYQQKPGKAPKLLIYTASNLQSGVPSRFSGSGSGTDFTLTISSLQPEDFATYYCQQYDSSPLTFGQGTKVEIK
Regarding B8, the “% binding (parent = 100)” value stood at 26.9%.
